According to patent US20260092121A1 (TALEM THERAPEUTICS, published 2026):
Where a chain is given by its changes, count along the chain named. In names and notes the source's numbering stands.

B1: anti-TrkB clone 3C12 (antibody, V domains shown)
VH: QVQLVQSGAEVKKPGESLKISCKGSGYSFTSYWIGWVRQMPGKGLEWMGIIYPGDSDTRYSPSFQGQVTISADKSISTAYLQWSSLKASDTAMYYCTRSSFNDHWGQGTLVTVSS
VL: QPVLTQPPSVSVSPGQTASITCSGDKLGNKFVSWFQQKPGQSPVLVIYQDTKRPSGIPERFSGSNSGSTATLTITGTQAMDDADYYCQAWNTNTALFGGGTKLTVL
notes: full-length IgG
B2: anti-TrkB clone 6B11 (antibody, V domains shown)
VH: QVQLQQSGAGLVKASQTLALTCAISGDSVSSNSAAWNWIRQSPSRGLEWLGRTYYRSKWYNDYAVSVKSRITINPDTSTNQFSLQLNSVTPEDTAVYYCTRGTGDKRAFDYWGQGTLVTVSS
VL: QSVLTQPPSASGTPGQRVTISCSGSSSNIGSYFVSWYQQLPGTAPKLLIYRNDKRPSGVPERFSGSKSGTSASLAISGLQSEDEADYYCAAWDDSLSGRIFGGGTKLTVL
notes: full-length IgG
B3: anti-TrkB clone 2C07 (antibody, V domains shown)
VH: QVQLQQSGGGVVQPGRSLRLSCAASGFTFSNYAMHWVRQAPGKGLEWVAVISYDGSNEYYADSVKGRFTISRDNSRNTLDLQMNSLRAEDTAVYYCARGTNYGMDVWGQGTMVTVSS
VL: LSELTQDPAVSVALGQTVRITCQGDSLRSYYASWYQQKPGQAPVLVIYGKNNRPSGIPDRFSGSDSGKTASLTITGAQAEDEADYYCQSRDTTGNYLLFGGGTKLTVL
notes: full-length IgG
B4: anti-TrkB clone 1E02 (antibody, V domains shown)
VH: QVQLLQSAAEVKKPGESLKISCKGSGYRFTSYWIGWVRQMPGKGLEWVGIIYPDDSDTRYSPSFQGQVTISADTSISTTYLQWSSLKASDTAIYYCASGEVAFDVWGQGTTVTVSS
VL: QSVLTQPPSLSVSPRQTASITCSGDKLGDKFVSWYQQKPGQSPVLVIYQDTKRPSGIPERFSGSNSGNTATLTISGTQAMDEADYYCQAWDSSTGVFGGGTKLTVL
notes: full-length IgG
B5: anti-TrkB clone 5C01 (antibody, V domains shown)
VH: QMQLVQSGAEVKKPGESLKISCKGSGYSFTSYWIGWVRQMPGKGLEWLGIIYPGDSDTRYSPSFQGQVTISADKSISTAYLQWSSLKASDTAMYYCARLGQGSGPFDYWGQGTLVTVSS
VL: QSVVTQPPSVSGTPGQRVSISCSGSSSNIGSHSVTWFQQLPGTAPKLLIYGNSQRPSGVPDRFSGSKSGTSASLAISGLQSEDEADYYCASWDDSLNGYVFGTGTKLTVL
notes: full-length IgG
B6: anti-TrkB clone 4G12 (antibody, V domains shown)
VH: EVQLVQSGAEVKKPGESLKISCKGSGYSFTSYWIGWVRQMPGKGLEWMGIIYPGDSDTRYSPSFQGQVTISADKSISTAYLQWSSLKASDTAMYYCARHDYGMDVWGQGTTVTVSS
VL: QSVLTQPPSVSVSPGQTASITCSGDKLGDKFASWYQQKPGQSPVLVIYQDNKRPSRVPERFSGSNSGNTATLTISETQAMDEADYYCQAWVNNTVVFGGGTKVTVL
notes: full-length IgG
B7: anti-TrkB clone 5A07 (antibody, V domains shown)
VH: B6 VH with E1Q, T111M
VL: LPVLTQPPSASGTPGQRVTISCSGSRSNVGGNTVSWYQQLPGSAPKLLIYTNNQRPSGVPDRFSGSKSGTSASLAISGLQSEDEADYYCAAWDDSLNGYVFGTGTQLTVL
notes: full-length IgG
B8: anti-TrkB clone 2E02 (antibody, V domains shown)
VH: QVQLQQSGPGLVKPSQTLSVTCVISGDSVSSKSAAWHWIRQSPSRGLEWLGRTYYRSKWYSDYGESVKSRVVINADTSNNQISLQLSSVTPEDTAAYYCARGIGSLNFDIWGQGTMVTVSS
VL: QSVLTQPPSASGSPGQSVTISCTGTSGDVGGYNYVSWYQQHPGKAPKLILYEVTKRPSGVPDRFSGSKSGNTASLTVSGLQAEDEADYYCSSYGGPNNLVLFGGGTKVTVL
notes: full-length IgG
B9: anti-TrkB clone 1F01 (antibody, V domains shown)
VH: B8 VH with S15A, V20L, V23D
VL: QSVVTQPASVSGSPGQSITISCTGTSSDIGGYDYVSWYQQHPGKAPKLMIFDVSNRPSGVSNRFSGSKSGNTASLTISGLQADDEADYYCSSYRAGSTLNLLFGGGTKLTVL
notes: full-length IgG
B10: KiH.F5_TrkB × 8A05_CD3 (bispecific antibody)
scFv: not shown
VH: QVQLQQSGGGLVQSGGSLRLSCAASGFSFGSSAMSWVRQAPGRGLEWVSGISHSGSTTYYADSVKGRFTISRDNSKNTLYLQMNSLRVEDTAVYYCAKIGAYGYYFHYWGQGTLVTVSS
VL: NFMLTQPHSVSESPGKTVTISCTRSGGSIASNYVQWYQQRPGSSPTTVIYDDNQRPSGVPDRFSGSIDSSSNSASLTISGLKTEDEADYYCQSSDNINHVIFGGGTKLTVL
notes: scFv-knob-Fc (IgG1 T366W/S354C) + Fab-hole-Fc (T366S/L368A/Y407V/Y349C); also called F5-8A05; F5_8A05
B11: KiH.3H11_TrkB × 3G07_CD3 (bispecific antibody)
scFv: QVQLQQSGPGLVKPSQTLSLTCAISGDSVSSNSAVWNWIRQSPSRGLEWLGRTYYRSKWYTDFAVSVKSRITINPDTSKNQFSLQLNSVTPEDTAVYYCARGRNGMDVWGQGTMVTVSTSSGGGGSGGGGSGGSALLPVLTQPPSASGTPGQRVTISCSGSSSNIGHKYVYWYQQLPGAAPKLLIYRNNQRPSGVPDRFSASKSGTSASLAISGLRSEDEADYYCATWDDSLNGVVFGGGTKVTVL
VH: B10 VH with S14P
VL: NFMLTQPHSLSESPGKTVTISCTRSSGSIASKYVQWYQQRPGSAPTTVIYDDKQRPSGVPDRFSGSFDSSSNSASLTISGLKTEDEADYYCQSFDSTNQAVVFGGGTKLTVL
notes: scFv-knob-Fc (IgG1 T366W/S354C) + Fab-hole-Fc (T366S/L368A/Y407V/Y349C); also called 3H11-3G07
B12: KiH.F5_TrkB × 3G07_CD3 (bispecific antibody)
scFv: not shown
VH: B10 VH with S14P
VL: B11 VL
notes: scFv-knob-Fc (IgG1 T366W/S354C) + Fab-hole-Fc (T366S/L368A/Y407V/Y349C); also called F5-3G07; F5_3G07
B13: KiH.3H11_TrkB × 8A05_CD3 (bispecific antibody)
scFv: B11 scFv
VH: B10 VH
VL: B10 VL
notes: scFv-knob-Fc (IgG1 T366W/S354C) + Fab-hole-Fc (T366S/L368A/Y407V/Y349C); also called 3H11-8A05
B14: KiH.F5_TrkB × 1A09_CD3 (bispecific antibody)
scFv: not shown
VH: EVQLVQSGGGLVKPGGSLRLSCAASGFTFSSYSMNWVRQAPGKGLEWVSSISSSSSYIYYADSVKGRFTISRDNSKNTLYLQMNSLRAEDTAVYYCARVKDYDSSLDYWGQGTLVTVSS
VL: SYELMQPPSVSVSPGQTARITCSGFKLGDKYVSWYQQKPGQSPVLVIYQDSKRPSGIPERFSGSNSGNTATLTISGTQAMDEADYYCQAWDSSTVVFGGGTKLTVL
notes: scFv-knob-Fc (IgG1 T366W/S354C) + Fab-hole-Fc (T366S/L368A/Y407V/Y349C); also called F5×1A09; F5-1A09
B15: KiH.6E08_TrkB × 1A09_CD3 (bispecific antibody)
scFv: QVQLVQSGGGVVQPGRSLRLSCAASGFTFSSYAMHWVRQAPGKGLEWVAVISYDGSNKYYADSVKGRFTISRDNSKNTLYLQMNSLRAEDTAVYYCARAFRRYDAFDIWGQGTLVTVSSSSGGGGSGGGGSGGSALDIQMTQTPLSLSVTLGQPASISCRSSQGLVYSDGNTYLNWFQQRPGQSPRRLIYKVSNRDSGVPDRFSGSGSGTDFTLKISRVEAEDVGVYYCMQGTHWPPAFGQGTKVEIK
VH: B14 VH
VL: B14 VL
notes: scFv-knob-Fc (IgG1 T366W/S354C) + Fab-hole-Fc (T366S/L368A/Y407V/Y349C); also called 6E08-1A09
B16: KiH.3H11_TrkB × 1A09_CD3 (bispecific antibody)
scFv: B11 scFv
VH: B14 VH
VL: B14 VL
notes: scFv-knob-Fc (IgG1 T366W/S354C) + Fab-hole-Fc (T366S/L368A/Y407V/Y349C); also called 3H11-1A09

Each binder was assayed against T1, human TrkB-His (human, UniProt Q16620 32-430) (assay: BLI off-rate, mAb captured).
T1 construct: in-house fusion of the TrkB ECD with poly-His, HEK293; also called huTrkB-His; hTrkB-His; not shown: poly-His tag

Q: With B1 as the binder, how does the koff read?
A: 0.000586 s⁻¹

Q: How did the koff turn out when B2 was run?
A: 0.00687 s⁻¹

Q: How did the koff turn out when B3 was run?
A: 0.00399 s⁻¹

Q: With B4 as the binder, how does the koff read?
A: 0.00318 s⁻¹

Q: How did the koff turn out when B5 was run?
A: 0.00491 s⁻¹

Q: Which koff does the source give for B6 here?
A: 0.00545 s⁻¹

Q: B7 was tested. Which koff did it give?
A: 0.00544 s⁻¹

Q: For B8, which koff is on record?
A: 0.0113 s⁻¹

Q: How did the koff turn out when B9 was run?
A: 0.011 s⁻¹

Each binder was assayed against T2, mouse TrkB-ECD-GST (mouse, UniProt P15209 32-429) (assay: ELISA).
T2 construct: extracellular domain; in-house fusion, HEK293; also called mTrkB-ECD-GST; mTrkB (ELISA); not shown: glutathione S-transferase (GST) fusion part

Q: Does B1 bind?
A: binds

Q: Does B2 bind?
A: binds

Q: Does B3 bind?
A: binds

Q: Does B4 bind?
A: binds

Q: Does B5 bind?
A: binds

Q: Does B6 bind?
A: binds

Q: Does B7 bind?
A: binds

Q: Does B8 bind?
A: binds

Q: Does B9 bind?
A: binds

What follows are binders tested against TrkB in PathHunter eXpress TrkB Functional Assay cells (modified U2OS) (assay: cell-based or functional assay).

Q: B1 was tested. Which “TrkB activation (EC50)” value did it give?
A: 0.018 µg/mL

Q: With B2 as the binder, how does the “TrkB activation (EC50)” value read?
A: 0.11 µg/mL

Q: Which “TrkB activation (EC50)” value does the source give for B3 here?
A: 0.036 µg/mL

Q: Which “TrkB activation (EC50)” value does the source give for B4 here?
A: 0.047 µg/mL

Q: B5 was tested. Which “TrkB activation (EC50)” value did it give?
A: 0.08 µg/mL

Q: How did the “TrkB activation (EC50)” value turn out when B6 was run?
A: 0.07 µg/mL

Q: B7 was tested. Which “TrkB activation (EC50)” value did it give?
A: 0.13 µg/mL

Q: For B8, which “TrkB activation (EC50)” value is on record?
A: 0.12 µg/mL

Q: B9 was tested. Which “TrkB activation (EC50)” value did it give?
A: 0.51 µg/mL

Each binder was assayed against human TrkA-His (human, UniProt P04629 33-417, limits assumed) (assay: ELISA).
human TrkA-His, sequence (P04629 33-417 limits assumed): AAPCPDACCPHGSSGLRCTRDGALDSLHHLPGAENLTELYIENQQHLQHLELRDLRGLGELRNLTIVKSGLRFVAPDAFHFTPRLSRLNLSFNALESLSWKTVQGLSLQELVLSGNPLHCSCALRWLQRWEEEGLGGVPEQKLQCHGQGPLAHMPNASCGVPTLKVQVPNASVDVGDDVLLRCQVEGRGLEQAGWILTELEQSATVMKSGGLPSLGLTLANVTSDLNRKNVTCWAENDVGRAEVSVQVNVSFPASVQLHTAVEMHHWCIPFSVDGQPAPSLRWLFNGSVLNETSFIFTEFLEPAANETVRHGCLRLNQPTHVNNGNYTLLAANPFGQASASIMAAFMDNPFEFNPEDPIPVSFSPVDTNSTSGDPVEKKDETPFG

Q: Does B1 bind?
A: no binding (tested: up to 10 µg/mL)

Q: Does B2 bind?
A: no binding (tested: up to 10 µg/mL)

Q: Does B3 bind?
A: no binding (tested: up to 10 µg/mL)

Q: Does B4 bind?
A: no binding (tested: up to 10 µg/mL)

Q: Does B5 bind?
A: no binding (tested: up to 10 µg/mL)

Q: Does B6 bind?
A: no binding (tested: up to 10 µg/mL)

Q: Does B7 bind?
A: no binding (tested: up to 10 µg/mL)

Q: Does B8 bind?
A: no binding (tested: up to 10 µg/mL)

Q: Does B9 bind?
A: no binding (tested: up to 10 µg/mL)

These binders were tested against human TrkC-His (human, UniProt Q16288 32-429) (assay: ELISA).

Q: Does B1 bind?
A: no binding (tested: up to 10 µg/mL)

Q: Does B2 bind?
A: no binding (tested: up to 10 µg/mL)

Q: Does B3 bind?
A: no binding (tested: up to 10 µg/mL)

Q: Does B4 bind?
A: no binding (tested: up to 10 µg/mL)

Q: Does B5 bind?
A: no binding (tested: up to 10 µg/mL)

Q: Does B6 bind?
A: no binding (tested: up to 10 µg/mL)

Q: Does B7 bind?
A: no binding (tested: up to 10 µg/mL)

Q: Does B8 bind?
A: no binding (tested: up to 10 µg/mL)

Q: Does B9 bind?
A: no binding (tested: up to 10 µg/mL)

These binders were tested against T1, human TrkB-His (assay: ELISA).

Q: Does B10 bind?
A: binds

Q: Does B11 bind?
A: binds

Q: Does B12 bind?
A: binds

Q: Does B13 bind?
A: binds

Q: Does B14 bind?
A: binds

Q: Does B15 bind?
A: binds

Q: Does B16 bind?
A: binds
